Measured values: patent US20080280834A1 (UNIVERSITY OF PITTSBURGH OF THE COMMONWEALTH SYSTEM OF …, published 2008)
Read-outs that look alike come from different tables or passages of the source. Values belong to the binder of their own block, whether it stands above or below them. No end group written: not given here.

Assays:
[1] = biological target: T1, Recombinant Human Fas/TNFRSF6/Fc Chimera (human, UniProt P25445 26-173); assay: ELISA, peptide coated, Fas/Fc added
T1 construct: also called FasR; Fas receptor; Fc part of the bought chimera not given
T1 sequence (looked up): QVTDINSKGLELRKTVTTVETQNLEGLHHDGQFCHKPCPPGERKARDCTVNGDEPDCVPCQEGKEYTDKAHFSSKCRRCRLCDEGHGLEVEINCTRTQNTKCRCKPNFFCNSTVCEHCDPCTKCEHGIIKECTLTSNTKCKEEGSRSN
Description: (§1) ELISA. Peptides were dissolved in a coating buffer solution (0.05M Sodium Carbonate, 0.02% Sodium Azide, pH=9.6) at the appropriate concentrations to a final concentration of 10 μM. Dilutions were made accordingly to reach desired experimental concentrations. 100 μl aliquots of the peptide solution was added to each well and incubated for 2 hours. All incubations were carried out with shaking at T=37° C. Wells were washed by pipetting solution out of each well, adding 200 μL of washing solution (PBS-Tween; 0.5%), shaking for 15 minutes and emptying each well. Three wash cycles were carried out prior to addition of 200 μL of blocking solution (1% BSA in PBS buffer) to each well followed by incubation for 2 hours. Wells were then washed (as per above procedure) three times. Protein solutions of the appropriate concentrations (Vₛₒₗᵤₜᵢₒₙ 50 μL) were then added and incubated for 2 hours. After washing three times (as per above protocol) Fas specific antibody solution (˜1:20,000) was added to each well in 100 μL aliquots and incubated for 1 hour. After washing three times (as per above protocol) IgM-HRP solution (˜1:20,000) was added to each well in 100 μL aliquots and incubated (with shaking) for 1 hour at T=37° C. Wells were washed three times prior to the addition of ready-to-use TMD, followed by incubation for 30 minutes. 2M H₂SO₄ (3 drops) was added to stop colorimetric reaction and the absorption was taken at 450 nm on a Perkin-Elmer, Victor3 Model automated plate reader. Data was analyzed using standard regression fits in Excel.
Effect of Flanking Residues on Binding Affinities. […] While this work has shown that tetrapeptides based from the original protein sequence can inhibit the FasL/FasR cell death pathway at low nM concentrations, the ability to improve upon this was examined by looking at the extended sequence on both the N-terminal and C-terminal side of the YLGA (SEQ ID NO:1) motif. Peptides up to 12 amino acids in length were synthesized based on the α-Met sequence and their Kₐ values measured for the Fas receptor, Table 7.

[2] = biological target: T1, Recombinant Human Fas/TNFRSF6/Fc Chimera; assay: ELISA, peptide coated, Fas/Fc added; remark: listed apart in the source
Description: as §1
(§2) Effect of Amino Acid Substitution on Binding Affinities. […] In the first series of peptides, alterations were made only to the tyrosine residue while retaining the final three amino acids homologous in the parent sequence (LGA).

[3] = biological target: T1, Recombinant Human Fas/TNFRSF6/Fc Chimera; assay: ELISA, peptide coated, Fas/Fc added; remark: listed apart in the source
Description: as §1, §2

[4] = biological target: T2, TNFR1; assay: method for TNFR not described
T2 construct: The same entry is used for the Kd and for the EC50 rows

[5] = biological target: T3, Fas receptor on Jurkat cells (UniProt P25445 26-335, limits assumed); assay: cell-based or functional assay
T3 sequence (looked up): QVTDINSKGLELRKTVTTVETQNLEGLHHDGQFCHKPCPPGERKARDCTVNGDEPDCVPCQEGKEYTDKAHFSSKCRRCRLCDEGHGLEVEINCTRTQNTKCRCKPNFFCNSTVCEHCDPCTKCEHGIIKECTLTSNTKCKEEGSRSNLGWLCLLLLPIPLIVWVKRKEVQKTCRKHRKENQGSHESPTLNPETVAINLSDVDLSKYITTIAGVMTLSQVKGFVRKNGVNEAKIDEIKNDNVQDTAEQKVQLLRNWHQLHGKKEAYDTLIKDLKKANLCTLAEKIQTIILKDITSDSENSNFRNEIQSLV

[6] = biological target: T2, TNFR1; assay: cell-based or functional assay
[7] = biological target: T1, Recombinant Human Fas/TNFRSF6/Fc Chimera; assay: ELISA, peptide coated, Fas/Fc added; remark: listed apart in the source
Description: as §1, §2

[8] = biological target: T1, Recombinant Human Fas/TNFRSF6/Fc Chimera; assay: ELISA, peptide coated, Fas/Fc added; remark: listed apart in the source
Description: as §1, §2

[9] = biological target: T3, Fas receptor on Jurkat cells; assay: cell-based or functional assay; remark: listed apart in the source
[10] = biological target: T1, Recombinant Human Fas/TNFRSF6/Fc Chimera; assay: ELISA, peptide coated, Fas/Fc added; remark: listed apart in the source
Description: as §1, §2

[11] = biological target: T1, Recombinant Human Fas/TNFRSF6/Fc Chimera; assay: ELISA, peptide coated, Fas/Fc added; remark: listed apart in the source
Description: as §1, with “After washing three times (as per above protocol) IgM-HRP solution (˜1:20,000) was added to each well in 100 μL aliquots and incubated (with shaking) for 1 hour at T=37° C.” left out

T2 sequence (P19438 whole entry): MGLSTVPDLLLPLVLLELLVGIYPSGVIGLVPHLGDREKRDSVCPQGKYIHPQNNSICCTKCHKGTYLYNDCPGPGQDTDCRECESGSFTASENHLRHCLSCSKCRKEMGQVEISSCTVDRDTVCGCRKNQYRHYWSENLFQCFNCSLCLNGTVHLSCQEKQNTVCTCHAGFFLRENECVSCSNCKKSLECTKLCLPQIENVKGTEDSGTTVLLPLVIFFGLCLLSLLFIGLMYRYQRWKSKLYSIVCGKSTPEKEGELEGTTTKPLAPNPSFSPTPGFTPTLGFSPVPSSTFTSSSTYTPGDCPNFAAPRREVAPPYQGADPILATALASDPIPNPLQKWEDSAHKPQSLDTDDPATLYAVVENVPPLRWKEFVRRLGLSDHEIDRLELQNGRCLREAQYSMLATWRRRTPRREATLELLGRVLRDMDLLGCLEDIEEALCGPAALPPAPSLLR

B1: HHI YLG A (peptide)
peptide: HHIYLGA
Ka [1]: 3e+08 M⁻¹

B2: HI YLG ATN YIY (peptide)
peptide: HIYLGATNYIY
Ka [1]: 3e+08 M⁻¹

B3: HHI YLG ATN (peptide)
peptide: HHIYLGATN
Ka [1]: 3e+08 M⁻¹

B4: HHI YLG ATN YIY (peptide)
peptide: HHIYLGATNYIY
Ka [1]: 3e+08 M⁻¹

B5: I YLG ATN YIY (peptide)
peptide: IYLGATNYIY
Ka [1]: 3e+08 M⁻¹

B6: HHI YLG ATN Y (peptide)
peptide: HHIYLGATNY
Ka [1]: 3e+08 M⁻¹

B7: HHI YLG AT (peptide)
peptide: HHIYLGAT
Ka [1]: 3e+08 M⁻¹

B8: YLGA (peptide)
peptide: YLGA
modifications: not fully specified
notes: Synthetic peptide; also called original tyrosine peptide
Ka [2]: 2e+08 M⁻¹
Ka [3]: 2e+08 M⁻¹
Kd [4]: 6 nM
EC50 (FasR) [5]: 6 nM
EC50 (TNFR) [6]: 11 nM
Ka [7]: 2e+08 M⁻¹
Ka [8]: 2e+08 M⁻¹
Kd [8]: 5 nM
EC50 (nM), cell viability of Jurkat cells exposed to recombinant FasL [9]: 6 nM
Ka [10]: 2e+08 M⁻¹
Kd [11]: 5 nM

B10: ELGA (peptide)
peptide: ELGA
Ka [3]: 5e+07 M⁻¹
fold drop off against YLGA [3]: 4 fold

B11: YLGT (peptide)
peptide: YLGT
binding result [2]: no binding (tested: concentration range of 1 nM to 1 µM)

B13: DLGA (peptide)
peptide: DLGA
Ka [3]: 5e+07 M⁻¹
fold drop off against YLGA [3]: 4 fold

B14: KLGA (peptide)
peptide: KLGA
Ka [3]: 8e+06 M⁻¹

B15: FLGA (peptide)
peptide: FLGA
Ka [3]: 1e+08 M⁻¹
Ka [8]: 1e+08 M⁻¹
Kd [8]: 10 nM

B16: ILGA (peptide)
peptide: ILGA
Ka [3]: 9e+06 M⁻¹

B20: SLGA (peptide)
peptide: SLGA
Ka [3]: 2e+08 M⁻¹
Ka [8]: 2e+08 M⁻¹
Kd [8]: 5 nM
EC50 (nM), cell viability of Jurkat cells exposed to recombinant FasL [9]: 6 nM

B21: YLIA (peptide)
peptide: YLIA
binding result [10]: no binding (tested: concentration range of 1 nM to 1 µM)

B23: LLGA (peptide)
peptide: LLGA
Ka [3]: 1e+07 M⁻¹
Ka [8]: 1e+07 M⁻¹
Kd [8]: 88 nM
EC50 (nM), cell viability of Jurkat cells exposed to recombinant FasL [9]: 93 nM

B25: YTGA (peptide)
peptide: YTGA
binding result [7]: no binding (tested: concentration range of 1 nM to 1 µM)

B26: GLGA (peptide)
peptide: GLGA
binding result [3]: no binding (tested: concentration range of 1 nM to 1 µM)

B28: ALGA (peptide)
peptide: ALGA
binding result [3]: no binding (tested: concentration range of 1 nM to 1 µM)

B32: YFGA (peptide)
peptide: YFGA
binding result [7]: no binding (tested: concentration range of 1 nM to 1 µM)

B33: HHI YLG ATN YI (peptide)
peptide: HHIYLGATNYI
Ka [1]: 3e+08 M⁻¹

Continued, in another order:

Ka [2]: 3e+07 M⁻¹
times less affinity than YLGA [3]: ~10 times
B9: YLGL (peptide)
peptide: YLGL

Ka [3]: 8e+07 M⁻¹
Ka [8]: 8e+07 M⁻¹
Kd [8]: 13 nM
B12: WLGA (peptide)
peptide: WLGA

fold decrease in Ka [3]: 20 fold
Ka [10]: 1e+06 M⁻¹
B17: YLAA (peptide)
peptide: YLAA

Ka [7]: 2e+08 M⁻¹
B18: YIGA (peptide)
peptide: YIGA

Ka [2]: 3e+07 M⁻¹
times less affinity than YLGA [3]: ~10 times
B19: YLGI (peptide)
peptide: YLGI

fold decrease in Ka [3]: 20 fold
Ka [7]: 1e+07 M⁻¹
B22: YGGA (peptide)
peptide: YGGA

Ka [3]: 2e+08 M⁻¹
B24: TLGA (peptide)
peptide: TLGA

fold decrease in Ka [3]: 20 fold
Ka [10]: 1e+06 M⁻¹
B27: YLLA (peptide)
peptide: YLLA

Ka [7]: 3e+08 M⁻¹
Ka [8]: 3e+08 M⁻¹
Kd [8]: 4 nM
B29: YAGA (peptide)
peptide: YAGA
EC50 (nM), cell viability of Jurkat cells exposed to recombinant FasL [9]: 6 nM

Ka [7]: 2e+08 M⁻¹
B30: YVGA (peptide)
peptide: YVGA

Ka [2]: 4e+07 M⁻¹
times less affinity than YLGA [3]: ~10 times
Kd [4]: 4 nM
EC50 (FasR) [5]: 52 nM
EC50 (TNFR) [6]: 8 nM
Ka [8]: 4e+07 M⁻¹
Kd [8]: 28 nM
Kd [11]: 28 nM
B31: YLGG (peptide)
peptide: YLGG
EC50 (nM), cell viability of Jurkat cells exposed to recombinant FasL [9]: 52 nM

Ka [1]: 3e+08 M⁻¹
B34: YLG ATN YIY (peptide)
peptide: YLGATNYIY
